Test results taken from US20030073142A1 (published 2003).

Molecular target: human MHC-I HLA-A2.1 expressed on RMA-S-A2.1 cells (murine TAP-deficient RMA-S cells engineered to express … (human, UniProt A*02:01))
Experiment: cell-based or functional assay

HLA-A2.1-specific fluorescence intensity (FACS, surface HLA-A2.1 on TAP-deficient RMA-S-A2.1 cells after overnight incubation with 50 micromoles per liter peptide), 1 log:
WVDNKTFSV [test peptide number 539.12 (human IgE CH1 nonamer, Trp Val Asp Asn Lys Thr Phe Ser Val)]
TQSPSVFPL [test peptide number 539.10 (human IgE CH1 nonamer, Thr Gln Ser Pro Ser Val Phe Pro Leu)]
WLSDRTYTC [test peptide number 539.11 (human IgE CH2 nonamer, Trp Leu Ser Asp Arg Thr Tyr Thr Cys)]
QLPDARHST [test peptide number 539.9 (human IgE CH4 nonamer, Gln Leu Pro Asp Ala Arg His Ser Thr)]
LLTVSGAWA [test peptide number 539.8 (human IgE CH1 nonamer, Leu Leu Thr Val Ser Gly Ala Trp Ala)]
